This is an account of results in US20240279281A1, “Peptide Inhibitors of Interleukin-23 Receptor” (Janssen Pharmaceutica NV, priority 2023, published 2024).

The target in the assay is T1, interleukin-23 receptor (IL-23R), Q5VWK5.
T1 chain: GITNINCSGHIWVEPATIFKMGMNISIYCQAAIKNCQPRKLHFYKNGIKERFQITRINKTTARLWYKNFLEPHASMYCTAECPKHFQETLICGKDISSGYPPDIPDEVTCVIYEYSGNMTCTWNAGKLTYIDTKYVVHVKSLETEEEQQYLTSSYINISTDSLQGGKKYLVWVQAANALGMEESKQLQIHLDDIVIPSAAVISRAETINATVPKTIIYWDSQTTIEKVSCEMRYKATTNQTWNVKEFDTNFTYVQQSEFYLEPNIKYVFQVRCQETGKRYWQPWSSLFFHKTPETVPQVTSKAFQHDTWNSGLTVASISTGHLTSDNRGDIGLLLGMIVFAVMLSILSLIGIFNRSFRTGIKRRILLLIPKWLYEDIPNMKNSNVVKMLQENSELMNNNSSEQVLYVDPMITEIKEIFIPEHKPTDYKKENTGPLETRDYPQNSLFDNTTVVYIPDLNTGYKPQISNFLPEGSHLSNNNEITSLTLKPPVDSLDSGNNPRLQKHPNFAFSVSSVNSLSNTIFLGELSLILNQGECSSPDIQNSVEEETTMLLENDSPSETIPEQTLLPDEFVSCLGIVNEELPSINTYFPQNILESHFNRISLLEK
As to the kind of experiment: cell-based or functional assay.

Starred links: 1 amine or outer side, 2 acyl side, 3 side chain; linkers in the order of their positions; H or OH if unused. Positions of bridges follow the written chain, without caps; N, C: chain ends. Non-standard residues stand in square brackets, D forms with d. No end group written: not given here. X3 = 4‑(2-(4-(2-amino-2-carboxyethyl)phenoxy)ethyl)‑4‑methylmorpholin‑4‑ium, C[N+]1(CCOc2ccc(CC(N[*:1])C(=O)[*:2])cc2)CCOCC1; Trp(7-(3-AcNH-Ph)) = CC(=O)Nc1cccc(-c2cccc3c(C[C@H](N)C(=O)O)c[nH]c23)c1; N‑methyl‑N‑acetyllysine = N-methyl-N-acetyllysine; 2Nal(6-OH) = N[C@@H](Cc1ccc2cc(O)ccc2c1)C(=O)O; Trp(7-Me) = Cc1cccc2c(C[C@H](N)C(=O)O)c[nH]c12; dLys(Me3) = C[N+](C)(C)CCCC[C@@H](N)C(=O)O; AEF = NCCOc1ccc(C[C@H](N)C(=O)O)cc1; 3Pal = N[C@@H](Cc1cccnc1)C(=O)O; d(hLys) = NCCCCC[C@@H](N)C(=O)O; Pen = CC(C)(S)[C@H](N)C(=O)O; Thp = NC1(C(=O)O)CCOCC1; Sar = CNCC(=O)O

B1: SEQ ID NO: 119 (peptide)
peptide: [d(hLys)](Me3)[Pen]NT[Trp(7-Me)]K[Pen][AEF][2Nal(6-OH)][Thp]K(Ac)N[3Pal][Sar]
modifications: disulfide 2-7 (inferred); ends not checked; also: K6: lipidated lysine, lipid not given here
The molecule B1 gave a PBMC pSTAT3 IC50 below 1 nM.

B2: SEQ ID NO: 139 (peptide)
peptide: [Pen]NT[Trp(7-Me)]K(Ac)[Pen][AEF][2Nal(6-OH)][Thp]K(Ac)N[3Pal][Sar]K
modifications: disulfide 1-6 (inferred); ends not checked; also: K14: lipidated lysine, lipid not given here
The molecule B2 registered a PBMC pSTAT3 IC50 below 0.1 nM.

In turn, R[Pen]NT[Trp(7-(3-AcNH-Ph))]K(Ac)[Pen]Y[2Nal(6-OH)][Thp]EN[3Pal][Sar] (disulfide 2-7 (inferred); ends not checked) [SEQ ID NO: 65] displayed an IL23R Reporter Assay IC50 below 10 nM and a PBMC pSTAT3 IC50 below 1 nM.

B3: SEQ ID NO: 128 (peptide)
peptide: [Pen]NT[Trp(7-Me)]K(Ac)[Pen][AEF][2Nal(6-OH)][Thp]KN[3Pal][Sar]
modifications: disulfide 1-6 (inferred); ends not checked; also: K10: lipidated lysine, lipid not given here
In turn, B3 registered a PBMC pSTAT3 IC50 below 1 nM.

[Pen]NT[Trp(7-Me)]K(Ac)[Pen][5‑(4-(2-amino-2-carboxyethyl)phenoxy)‑N,N,N‑trimethylpentan‑1‑aminium][2Nal(6-OH)][Thp]EN[3Pal][Sar] (not fully specified (bridges); ends and bridges not checked) [SEQ ID NO: 79]: the IL23R Reporter Assay IC50 was below 10 nM and the PBMC pSTAT3 IC50 is below 10 pM.

B4: SEQ ID NO: 116 (peptide)
peptide: R[Pen]NT[Trp(7-Me)]K(Ac)[Pen][AEF][2Nal(6-OH)][Thp]EN[3Pal][Sar]K
modifications: disulfide 2-7 (inferred); ends not checked; also: K15: lipidated lysine, lipid not given here
In turn, B4 yielded a PBMC pSTAT3 IC50 below 1 nM.

[Pen]NT[Trp(7-(3-AcNH-Ph))]K(Ac)[Pen][5‑(4-(2-amino-2-carboxyethyl)phenoxy)‑N,N,N‑trimethylpentan‑1‑aminium][2Nal(6-OH)][Thp]EN[3Pal][Sar] (disulfide 1-6 (inferred); ends not checked) [SEQ ID NO: 63]: the IL23R Reporter Assay IC50 was below 10 nM and the PBMC pSTAT3 IC50 was below 0.1 nM.

B5: SEQ ID NO: 129 (peptide)
peptide: [Pen]NT[Trp(7-Me)]K(Ac)[Pen][AEF][2Nal(6-OH)][Thp]KN[3Pal][Sar]
modifications: disulfide 1-6 (inferred); ends not checked; also: K10: lipidated lysine, lipid not given here
As for B5, the PBMC pSTAT3 IC50 was below 1 nM.

B6: SEQ ID NO: 131 (peptide)
peptide: [Pen]NT[Trp(7-Me)]K[Pen][AEF][2Nal(6-OH)][Thp]K(Ac)N[3Pal][Sar]
modifications: disulfide 1-6 (inferred); ends not checked; also: K5: lipidated lysine, lipid not given here
For the molecule B6, the PBMC pSTAT3 IC50 is below 1 nM.

[Pen]NT[Trp(7-(3-AcNH-Ph))]K(Ac)[Pen][X3][2Nal(6-OH)][Thp][N‑methyl‑N‑acetyllysine]NH[Sar] (disulfide 1-6 (inferred); ends not checked) [SEQ ID NO: 62]: the IL23R Reporter Assay IC50 was below 10 nM and the PBMC pSTAT3 IC50 was below 1 nM.

Take R[Pen]NTWK(Ac)[Pen][AEF][2Nal(6-OH)][Thp]EN[3Pal][Sar] (not fully specified (bridges); ends and bridges not checked) [SEQ ID NO: 74]: the IL23R Reporter Assay IC50 was below 10 nM and the PBMC pSTAT3 IC50 was below 0.1 nM.

Turning to R[Pen]NT[Trp(7-Me)]K(Ac)[Pen][5‑(4-(2-amino-2-carboxyethyl)phenoxy)‑N,N,N‑trimethylpentan‑1‑aminium][2Nal(6-OH)][Thp]K(Ac)N[3Pal][Sar] (disulfide 2-7 (inferred); ends not checked) [SEQ ID NO: 58], the IL23R Reporter Assay IC50 was below 10 nM and the PBMC pSTAT3 IC50 is below 0.1 nM.

B7: SEQ ID NO: 126 (peptide)
peptide: K[Pen]NT[Trp(7-Me)]K(Ac)[Pen][AEF][2Nal(6-OH)][Thp]EN[3Pal][Sar]
modifications: disulfide 2-7 (inferred); ends not checked; also: K1: lipidated lysine, lipid not given here
In the case of B7, the PBMC pSTAT3 IC50 was below 1 nM.

With K[Pen]ET[Trp(7-Me)]K(Ac)[Pen][AEF][2Nal(6-OH)][Thp]K(Ac)N[3Pal][Sar] (disulfide 2-7 (inferred); ends not checked) [SEQ ID NO: 134], the PBMC pSTAT3 IC50 is below 1 nM.

B8: SEQ ID NO: 96 (peptide)
peptide: [Pen]NT[Trp(7-Me)]K[Pen][AEF][2Nal(6-OH)][Thp]K(Ac)N[3Pal][Sar]
modifications: disulfide 1-6 (inferred); not fully specified (residue 5); ends not checked; also: K5: lipidated lysine, lipid not given here
On to B8, for which the PBMC pSTAT3 IC50 was below 0.1 nM.

B9: SEQ ID NO: 140 (peptide)
peptide: R[Pen]ET[Trp(7-Me)]K[Pen][AEF][2Nal(6-OH)][Thp]EN[3Pal][Sar]
modifications: disulfide 2-7 (inferred); ends not checked; also: K6: lipidated lysine, lipid not given here
Regarding B9, the PBMC pSTAT3 IC50 is below 1 nM.

R[Pen]NT[Trp(7-Me)]K(Ac)[Pen][AEF][2Nal(6-OH)][Thp]ENH[Sar] (disulfide 2-7 (inferred); ends not checked) [SEQ ID NO: 57]: the PBMC pSTAT3 IC50 was below 1 nM.

R[Pen]NT[Trp(7-(3-AcNH-Ph))]K(Ac)[Pen][X3][2Nal(6-OH)][Thp]EN[Thp] (disulfide 2-7 (inferred); ends not checked) [SEQ ID NO: 110] had a PBMC pSTAT3 IC50 below 1 nM.

In turn, R[Pen]NT[Trp(7-Me)]K(Ac)[Pen][X3][2Nal(6-OH)][Thp]EN[3Pal][Sar] (not fully specified (bridges); ends and bridges not checked) [SEQ ID NO: 77] came in with an IL23R Reporter Assay IC50 below 10 nM and a PBMC pSTAT3 IC50 below 10 pM.

With R[Pen]NT[Trp(7-(3-AcNH-Ph))]K(Ac)[Pen][X3][2Nal(6-OH)][Thp]ENH[Sar] (disulfide 2-7 (inferred); ends not checked) [SEQ ID NO: 64], the PBMC pSTAT3 IC50 is below 1 nM.

[Pen]NT[Trp(7-(3-AcNH-Ph))]K(Ac)[Pen][AEF][2Nal(6-OH)][Thp]EN[3Pal][Sar] (not fully specified (bridges); ends and bridges not checked) [SEQ ID NO: 69] had an IL23R Reporter Assay IC50 below 10 nM and a PBMC pSTAT3 IC50 below 10 pM.

Turning to R[Pen]ET[Trp(7-Me)]K(Ac)[Pen][AEF][2Nal(6-OH)][Thp]EN[3Pal][Sar] (disulfide 2-7 (inferred); ends not checked) [SEQ ID NO: 141], the PBMC pSTAT3 IC50 is below 0.1 nM.

Consider [dLys(Me3)][Pen]NT[Trp(7-Me)]K(Ac)[Pen][5‑(4-(2-amino-2-carboxyethyl)phenoxy)‑N,N,N‑trimethylpentan‑1‑aminium][2Nal(6-OH)][Thp]EN[3Pal][Sar] (not fully specified (bridges); ends and bridges not checked) [SEQ ID NO: 67], for which the IL23R Reporter Assay IC50 was below 10 nM and the PBMC pSTAT3 IC50 is below 0.1 nM.

B10: SEQ ID NO: 118 (peptide)
peptide: K[Pen]NT[Trp(7-Me)]K(Ac)[Pen][AEF][2Nal(6-OH)][Thp]K(Ac)N[3Pal][Sar]
modifications: disulfide 2-7 (inferred); ends not checked; also: K1: lipidated lysine, lipid not given here
B10 showed a PBMC pSTAT3 IC50 below 1 nM.

As for [Pen]NT[Trp(7-Me)]K(Ac)[Pen][X3][2Nal(6-OH)][Thp]EN[3Pal][Sar] (disulfide 1-6 (inferred); ends not checked) [SEQ ID NO: 56], the IL23R Reporter Assay IC50 was below 10 nM and the PBMC pSTAT3 IC50 was below 10 pM.
